Source: patent publication US20120172295A1 (INDIANA UNIVERSITY RESEARCH AND TECHNOLOGY, published 2012)
“And” between values parts separate entries of the source, which are not always exact repeats. Equal values may be shown once. Read-outs that look alike come from different tables or passages of the source. Starred links: 1 amine or outer side, 2 acyl side, 3 side chain; linkers in the order of their positions; H or OH if unused. Positions of bridges follow the written chain, without caps; N, C: chain ends. Non-standard residues stand in square brackets, D forms with d. Groups on a side chain read outwards from the residue. No end group written: not given here. *: point of attachment. γGlu = O=C(O)[C@H](CCC(=O)[*:2])N[*:1]; Palmitoyl = CCCCCCCCCCCCCCCC(=O)*; Myristoyl = CCCCCCCCCCCCCC(=O)*; DMIA = not defined here; Aib = CC(C)(N)C(=O)O; Ahx = NCCCCCC(=O)O; βAla = NCCC(=O)O

What was measured:
Assay in all cases: cell-based or functional assay
[1] = target: T1, GLP-1 receptor (UniProt P43220 24-463, limits assumed)
[2] = target: T2, glucagon receptor (UniProt P47871 26-477, limits assumed)
[3] = target: T1, GLP-1 receptor; remark: listed apart in the source
[4] = target: T2, glucagon receptor; remark: listed apart in the source
[5] = target: T1, GLP-1 receptor; remark: listed apart in the source
[6] = target: T3, GIP receptor (UniProt P48546 22-466)
T3 sequence (looked up): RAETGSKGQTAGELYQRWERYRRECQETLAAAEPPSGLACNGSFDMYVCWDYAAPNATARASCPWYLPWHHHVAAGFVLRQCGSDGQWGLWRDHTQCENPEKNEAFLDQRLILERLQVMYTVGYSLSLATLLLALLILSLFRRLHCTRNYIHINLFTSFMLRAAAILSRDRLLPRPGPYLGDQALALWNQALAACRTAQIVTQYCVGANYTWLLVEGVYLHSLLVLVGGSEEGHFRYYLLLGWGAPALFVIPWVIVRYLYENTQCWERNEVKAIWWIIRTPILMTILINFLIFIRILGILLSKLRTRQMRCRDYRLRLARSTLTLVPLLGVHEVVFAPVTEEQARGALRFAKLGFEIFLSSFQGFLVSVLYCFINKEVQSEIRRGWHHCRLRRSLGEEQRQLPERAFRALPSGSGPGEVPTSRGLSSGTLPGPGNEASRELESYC

[7] = target: T1, GLP-1 receptor; remark: listed apart in the source
[8] = target: T2, glucagon receptor; remark: listed apart in the source

T2 sequence (P47871 26-477 limits assumed): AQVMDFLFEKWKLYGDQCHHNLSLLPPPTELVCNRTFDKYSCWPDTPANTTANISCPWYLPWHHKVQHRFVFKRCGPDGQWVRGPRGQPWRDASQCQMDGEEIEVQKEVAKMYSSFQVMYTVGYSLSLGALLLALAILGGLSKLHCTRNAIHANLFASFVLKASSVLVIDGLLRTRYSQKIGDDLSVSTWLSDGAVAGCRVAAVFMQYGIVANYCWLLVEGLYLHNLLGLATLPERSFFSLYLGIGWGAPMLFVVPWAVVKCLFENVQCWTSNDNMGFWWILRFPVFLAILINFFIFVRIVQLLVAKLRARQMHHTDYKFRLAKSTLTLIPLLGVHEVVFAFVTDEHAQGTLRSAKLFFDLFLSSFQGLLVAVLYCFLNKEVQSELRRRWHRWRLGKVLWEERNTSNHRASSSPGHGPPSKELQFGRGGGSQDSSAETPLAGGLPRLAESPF

H[Aib]QGTFTSDK([Leu-Leu-Palmitoyl])SKYLD[Aib]RRAQDFVQWLMNT-NH2 [Peptide 86 (SEQ ID NO: 568)]
EC50 [1]: 0.006 nM

H[Aib]QGTFTSDK([Ala-Ala-Myristoyl])SKYLD[Aib]RRAQDFVC(PEG 40 kDa)WLMNT-NH2 [Peptide 81* (SEQ ID NO: 573)]
EC50 [1]: 0.271 nM
EC50 [2]: 0.597 nM

H[Aib]QGTFTSDK([βAla-βAla-Palmitoyl])SKYLD[Aib]RRAQDFVQWLMNT-NH2 [Peptide 84 (SEQ ID NO: 566)]
EC50 [1]: 0.004 nM

B1: Chi-2, AIB2, Lys10 γE-γE-C16 (SEQ ID NO: 646) (peptide)
peptide: H[Aib]QGTFTSDK([γGlu-γGlu-Palmitoyl])SKYLDEQAAKEFIAWLMNT-NH2
modifications: N-terminus assumed
SMILES: CCCCCCCCCCCCCCCC(=O)N[C@@H](CCC(=O)N[C@@H](CCC(=O)NCCCC[C@H](NC(=O)[C@H](CC(=O)O)NC(=O)[C@H](CO)NC(=O)[C@@H](NC(=O)[C@H](Cc1ccccc1)NC(=O)[C@@H](NC(=O)CNC(=O)[C@H](CCC(N)=O)NC(=O)C(C)(C)NC(=O)[C@@H](N)Cc1c[nH]cn1)[C@@H](C)O)[C@@H](C)O)C(=O)N[C@@H](CO)C(=O)N[C@@H](CCCCN)C(=O)N[C@@H](Cc1ccc(O)cc1)C(=O)N[C@@H](CC(C)C)C(=O)N[C@@H](CC(=O)O)C(=O)N[C@@H](CCC(=O)O)C(=O)N[C@@H](CCC(N)=O)C(=O)N[C@@H](C)C(=O)N[C@@H](C)C(=O)N[C@@H](CCCCN)C(=O)N[C@@H](CCC(=O)O)C(=O)N[C@@H](Cc1ccccc1)C(=O)N[C@H](C(=O)N[C@@H](C)C(=O)N[C@@H](Cc1c[nH]c2ccccc12)C(=O)N[C@@H](CC(C)C)C(=O)N[C@@H](CCSC)C(=O)N[C@@H](CC(N)=O)C(=O)N[C@H](C(N)=O)[C@@H](C)O)[C@@H](C)CC)C(=O)O)C(=O)O
EC50 [3]: 0.0018 nM

H[Aib]QGTFTSDK([Ahx-Palmitoyl])SKYLD[Aib]RRAQDFVQWLMNT-NH2 [Peptide 85 (SEQ ID NO: 567)]
EC50 [1]: 0.005 nM
EC50 [2]: 0.01 nM

H[Aib]QGTFTSDK([γGlu-γGlu-Myristoyl])SKYLD[Aib]RRAQDFVC(PEG 40 kDa)WLMNT-NH2 [Peptide 78* (SEQ ID NO: 571)]
EC50 [1]: 0.103 nM
EC50 [2]: 0.319 nM

H[Aib]QGTFTSDK([Pro-Pro-Palmitoyl])SKYLD[Aib]RRAQDFVQWLMNT-NH2 [Peptide 87 (SEQ ID NO: 569)]
EC50 [1]: 0.009 nM
EC50 [2]: 0.017 nM

XSQGTFTSDYSKYLDERRAKDFVQWLMNK (DMIA at 1; E16/K20 lactam; Lys 29 with C16 acyl via γ-Glu-γ-Glu) [DMIA1, E16/K20 lactam, Lys29 γE-γE-C16 (SEQ ID NO: 654)]
EC50 [4]: 0.025 nM

H[Aib]QGTFTSDK([γGlu-γGlu-Palmitoyl])SKYLD[Aib]RRAQDFVC(PEG 40 kDa)WLMNT-NH2 [Peptide 80* (SEQ ID NO: 576)]
EC50 [2]: 0.108 nM

H[Aib]QGTFTSDK(Myristoyl)SKYLD[Aib]RRAQDFVC(PEG 40 kDa)WLMNT-NH2 [Peptide 77* (SEQ ID NO: 570)]
EC50 [1]: 1.46 nM
EC50 [2]: 21.9 nM

B2: Peptide 26 (SEQ ID NO: 637) (peptide)
peptide: H[Aib]QGTFTSDYSKYLD[Aib]RRAQDFVQWLMNT-NH2
modifications: N-terminus assumed
SMILES: CSCC[C@H](NC(=O)[C@H](CC(C)C)NC(=O)[C@H](Cc1c[nH]c2ccccc12)NC(=O)[C@H](CCC(N)=O)NC(=O)[C@@H](NC(=O)[C@H](Cc1ccccc1)NC(=O)[C@H](CC(=O)O)NC(=O)[C@H](CCC(N)=O)NC(=O)[C@H](C)NC(=O)[C@H](CCCNC(=N)N)NC(=O)[C@H](CCCNC(=N)N)NC(=O)C(C)(C)NC(=O)[C@H](CC(=O)O)NC(=O)[C@H](CC(C)C)NC(=O)[C@H](Cc1ccc(O)cc1)NC(=O)[C@H](CCCCN)NC(=O)[C@H](CO)NC(=O)[C@H](Cc1ccc(O)cc1)NC(=O)[C@H](CC(=O)O)NC(=O)[C@H](CO)NC(=O)[C@@H](NC(=O)[C@H](Cc1ccccc1)NC(=O)[C@@H](NC(=O)CNC(=O)[C@H](CCC(N)=O)NC(=O)C(C)(C)NC(=O)[C@@H](N)Cc1c[nH]cn1)[C@@H](C)O)[C@@H](C)O)C(C)C)C(=O)N[C@@H](CC(N)=O)C(=O)N[C@H](C(N)=O)[C@@H](C)O
EC50 [1]: 0.475 nM
EC50 [2]: 0.653 nM

H[Aib]QGTFTSDYSKYLDEQAAKEFIC(PEG 40 kDa)WLMNGGPSSGAPPPSK-NH2 [mt-350]
% Relative activity [5]: 58.9%
EC50 [5]: 0.0107 nM
% Relative activity [6]: 0%
EC50 [6]: 77.7 nM

HSQGTFTSDYSKYLDSRRAQDFVQWLMNGGPSSGAPPPS-NH2 [MNGG30 PSSGAPPPS (SEQ ID NO: 522)]
EC50 [7]: 0.31 nM
Relative Potency (%) [7]: 8%

H[Aib]QGTFTSDYSKYLD[Aib]QAAKEFIC(PEG 40 kDa)WLMNGGPSSGAPPPSK(Myristoyl)-NH2 [mt-351]
% Relative activity [8]: 10.7%
EC50 [8]: 0.196 nM

B3: Chi-2, AIB2, I7, Lys10 γE-C16 (SEQ ID NO: 649) (peptide)
peptide: H[Aib]QGTFISDK([γGlu-Palmitoyl])SKYLDEQAAKEFIAWLMNT-NH2
modifications: N-terminus assumed
SMILES: CCCCCCCCCCCCCCCC(=O)N[C@@H](CCC(=O)NCCCC[C@H](NC(=O)[C@H](CC(=O)O)NC(=O)[C@H](CO)NC(=O)[C@@H](NC(=O)[C@H](Cc1ccccc1)NC(=O)[C@@H](NC(=O)CNC(=O)[C@H](CCC(N)=O)NC(=O)C(C)(C)NC(=O)[C@@H](N)Cc1c[nH]cn1)[C@@H](C)O)[C@@H](C)CC)C(=O)N[C@@H](CO)C(=O)N[C@@H](CCCCN)C(=O)N[C@@H](Cc1ccc(O)cc1)C(=O)N[C@@H](CC(C)C)C(=O)N[C@@H](CC(=O)O)C(=O)N[C@@H](CCC(=O)O)C(=O)N[C@@H](CCC(N)=O)C(=O)N[C@@H](C)C(=O)N[C@@H](C)C(=O)N[C@@H](CCCCN)C(=O)N[C@@H](CCC(=O)O)C(=O)N[C@@H](Cc1ccccc1)C(=O)N[C@H](C(=O)N[C@@H](C)C(=O)N[C@@H](Cc1c[nH]c2ccccc12)C(=O)N[C@@H](CC(C)C)C(=O)N[C@@H](CCSC)C(=O)N[C@@H](CC(N)=O)C(=O)N[C@H](C(N)=O)[C@@H](C)O)[C@@H](C)CC)C(=O)O
EC50 [3]: 0.024 nM and 0.044 nM

HAEGTFTSDVSSYLEGQAAKEFIAWLVKGG-NH2 [GLP-1-VKGG30 (SEQ ID NO: 527)]
EC50 [7]: 0.025 nM
Relative Potency (%) [7]: 100%

HSQGTFTSDYSKYLDERRAKDFVQWLMDGGPSSGAPPPS-NH2 [E16K20-MDGG30 PSSGAPPPS (SEQ ID NO: 526)]
EC50 [7]: 0.02 nM

[DMIA]SQGTFTSDK([γGlu-Palmitoyl])SKYLDERRAKDFVQWLMNT (lactam 16-20; reading uncertain) [DMIA1, E16/K20 lactam, Lys10 γE-C16 (SEQ ID NO: 651)]
EC50 [3]: 0.006 nM

B4: Peptide 83 (SEQ ID NO: 565) (peptide)
peptide: H[Aib]QGTFTSDK([γGlu-γGlu-Palmitoyl])SKYLD[Aib]RRAQDFVQWLMNT-NH2
modifications: N-terminus assumed
SMILES: CCCCCCCCCCCCCCCC(=O)N[C@@H](CCC(=O)N[C@@H](CCC(=O)NCCCC[C@H](NC(=O)[C@H](CC(=O)O)NC(=O)[C@H](CO)NC(=O)[C@@H](NC(=O)[C@H](Cc1ccccc1)NC(=O)[C@@H](NC(=O)CNC(=O)[C@H](CCC(N)=O)NC(=O)C(C)(C)NC(=O)[C@@H](N)Cc1c[nH]cn1)[C@@H](C)O)[C@@H](C)O)C(=O)N[C@@H](CO)C(=O)N[C@@H](CCCCN)C(=O)N[C@@H](Cc1ccc(O)cc1)C(=O)N[C@@H](CC(C)C)C(=O)N[C@@H](CC(=O)O)C(=O)NC(C)(C)C(=O)N[C@@H](CCCNC(=N)N)C(=O)N[C@@H](CCCNC(=N)N)C(=O)N[C@@H](C)C(=O)N[C@@H](CCC(N)=O)C(=O)N[C@@H](CC(=O)O)C(=O)N[C@@H](Cc1ccccc1)C(=O)N[C@H](C(=O)N[C@@H](CCC(N)=O)C(=O)N[C@@H](Cc1c[nH]c2ccccc12)C(=O)N[C@@H](CC(C)C)C(=O)N[C@@H](CCSC)C(=O)N[C@@H](CC(N)=O)C(=O)N[C@H](C(N)=O)[C@@H](C)O)C(C)C)C(=O)O)C(=O)O
EC50 [1]: 0.043 nM

H[Aib]QGTFTSDK([Ala-Ala-Palmitoyl])SKYLD[Aib]RRAQDFVQWLMNT-NH2 [Peptide 82 (SEQ ID NO: 564)]
EC50 [1]: 0.108 nM
EC50 [2]: 0.024 nM

[DMIA]SQGTFTSDK([γGlu-γGlu-Palmitoyl])SKYLDERRAKDFVQWLMNT (lactam 16-20; reading uncertain) [DMIA1, E16/K20 lactam, Lys10 γE-γE-C16 (SEQ ID NO: 652)]
EC50 [3]: 0.004 nM

H[Aib]QGTFTSDK([Ala-Ala-Palmitoyl])SKYLD[Aib]RRAQDFVC(PEG 40 kDa)WLMNT-NH2 [Peptide 79* (SEQ ID NO: 575)]
EC50 [2]: 0.102 nM
